Non-standard residues stand in square brackets, D forms with d. No end group written: not given here. ebes = not defined here
Tests used:
Format in all cases: physicochemical
[1] = Transmission electron microscopy (TEM) of negatively stained aggregate
Source text: The insert is an enlarged image.

[2] = Small-angle X-ray scattering (SAXS) of polypeptide in solution
Method: The black circles represent experimental data and the red line represents X-ray scattering data of the most likely model obtained using DAMMIF.
As shown in FIG. 10 and FIG. 11, a form factor (P(q)) and an electron pair distance distribution function p(r) were obtained to investigate the shape and size of the polypeptide prepared in Example 2 (ODβ-S).
For the polypeptide prepared in Example 2 (ODβ-S), Rg,p(r) was calculated to be 11.01±0.078 Å and Dmax was calculated to be 34.0 Å.

[3] = Diffusion-ordered spectroscopy (DOSY) in solution

Comparative Example 2: comparative naturally directed β-α-β polypeptide WKWEWYWKWEW-GSGS-A(EAAAK)2A-GS-... (SEQ ID NOS 13 and 3) (chain 1 WKWEWYWKWEWGSGSAEAAAKEAAAKAGSK; chain 2 WEWKWYWEWKW; also: chain 2 joined at Lys30 side chain (εK branch))
aggregate morphology [1]: forms a heterogeneous structure and exists mainly as large-sized aggregates

Example 2: short polypeptide WKWEW-GSGS-(ebes)GS-εK- with oppositely directed WEWKW (SEQ ID NOS 9 and 10) (chain 1 WKWEWGSGS[ebes]GSK; numbers in words are those of the source; reading uncertain; also: K12 εK branch carrying oppositely directed WEWKW strand (chain 2), printed as WKWEW-GSGS-(ebes)GS-εK-)
aggregation state [2]: exists as monomers rather than as aggregates | Dmax ([2]; from p(r)): 34.0 Å | Rg,p(r) ([2]; from p(r) using GNOM): 11.01±0.078 Å | D (diffusion coefficient) [3]: 1.625×10^−10 m^2/s | hydrodynamic radius R(H) [3]: 12.27 Å

Source: patent US9822149B2, “Polypeptide having multiple directionality and self-assembled nanostructure containing the same” (INDUSTRY-ACADEMIC COOPERATION FOUNDATION, YONSEI UNIVERSITY, priority 2014, dated 2017)
